Measurements reported in paper PMC5906663.

How the values were obtained:
[1] = target: NCAM R156E mutant expressed in HEK293T cells (UniProt P13591); experiment: co-IP; lysates (1 mg, RIPA buffer) of HEK293T cells transfected with NCAM140, NCAM mutants or EphA3, incubated with recombinant neurocan; precipitated with antibodies against NCAM (H-300) or EphA3 (C-19) and Protein A/G agarose; immunoblot for neurocan, densitometry
[2] = target: NCAM K162D mutant expressed in HEK293T cells (UniProt P13591); experiment: as above
[3] = target: human NCAM Ig1 Fc fusion protein (human); experiment: pull-down; 1 ug of neurocan (human or mouse) incubated with 1 ug of Fc protein in TBS for 1 hr at 37 C; Fc proteins pulled down with Protein A/G Sepharose beads; immunoblot, densitometry
[4] = target: human NCAM Ig1-3 Fc fusion protein (human); experiment: as above
[5] = target: human NCAM Ig1-2 Fc fusion protein (human); experiment: as above
[6] = target: human NCAM Ig2 Fc fusion protein (human); experiment: as above
[7] = target: human NCAM Ig1-5/FN1-2 Fc fusion protein (full-length NCAM-EC) (human) (UniProt P13591); experiment: as above

neurocan co-immunoprecipitated, percent of WT NCAM [1]	neurocan co-immunoprecipitated, percent of WT NCAM [2]	neurocan bound, percent of the amount bound to NCAM-EC-Fc [3] [%]	neurocan bound, percent of the amount bound to NCAM-EC-Fc [4] [%]	neurocan bound, percent of the amount bound to NCAM-EC-Fc [5] [%]	neurocan bound, percent of the amount bound to NCAM-EC-Fc [6] [%]	neurocan bound to NCAM-EC-Fc, percent of the human neurocan level [7] [%]	Substance
32 % of WT	41 % of WT	23	50	33	129		recombinant human neurocan (full-length protein) (from UniProt O14594 23-1321) (natural protein)
						93	recombinant mouse neurocan Glu23-637 (a truncation lacking the sushi domain) (from UniProt P55066 23-637) (domain or fragment)
